Reference: publication PMC12436618

Target: KIF1A-201(1-482)-His (mouse)
Test: SEC; Superdex 200 Increase 10/300 GL; 250 µg of each protein at about 1.2 µg/µl; 20 mM PIPES-KOH pH 7.0, 150 mM KCl, 1 mM MgCl2, 0.1% Tween 20; size from a calibration curve of globular standards; monomer to dimer

stoichiometry N: 2
Substance: KIF1A-201(1-482)-His (domain or fragment)
